Laboratory results as given in US20260069656A1, “Nutritive Polypeptides and Formulations Thereof, and Methods of Production and Use Thereof” (Axcella Health Inc., priority 2013, published 2026).

B1: SEQID-00647: protein of the 168 nutritive polypeptide library (protein)
chain: MALSKIEEARQLNDDDLSEQILEIKKQLANLRLLKATGRLEKPHEIRHTRHRLSQLLTVERERQLPNQSPA
modifications: Arthrospira platensis C1
notes: protein of the 168 nutritive polypeptide library
B2: SEQID-00606: protein of the 168 nutritive polypeptide library (protein)
chain: MASEGDHHHHHHHHQDHDHHHHDHDHHHHHDGEGETNSWVGKDGKVYHSHDGLAPHSHEPIYSPGYFTRRAPPLLNRNFNERAFTVGIGGPVGTGKTALMLALCELLRENYSLAAVTNDIFTKEDGEFLVKHKALPEERIRAVETGGCPHAAIREDISINLGPLEELSNLFKADILLCESGGDNLAANFSRELADYIIYIIDVSGGDKIPRKGGPGITQADLLVINKTDLAPAIGADLAVMQRDALRMRDGGPFVFAQVKHKIGVEEIGNLVLQAWEAATGNKRH
modifications: Glycine max
notes: as for B1
B3: SEQID-00601: protein of the 168 nutritive polypeptide library (protein, listed as Agaricus bisporus)
chain: MTRSWEPGTQYNLGDVVEYNGDEYKIIQAHSSQSDWAPDRTPALWGKLPHRHHQQGQYQQQQECQPQQPQKTCYDYGKQEQAPQHSDSKEKKNWFGNITESQKQALEVGGGVALGAGLLGGAFAAWKHHQHKEEAHDSFEAWANAARSRAEEFRAKGPQGPATWVYNEGKHIPEQAILVGTEHNWNLYICRAYCDGGVQIGKASDVFKKGAVIGYKEDEHHLDKYEILLGDMRGLKWVQTGNSLDLASLGATPVEGGYENDHTRLYIARAFHKGAKHPGKVSERLDGAYIPYDGKEKCVKEYEVLCYL
modifications: var. bisporus; strain H97 / ATCC MYA-4626 / FGSC 10389
notes: as for B1
B4: SEQID-00610: protein of the 168 nutritive polypeptide library (protein, listed as Saccharomyces cerevisiae)
chain: MVLEATVLVIDNSEYSRNGDFPRTRFEAQIDSVEFIFQAKRNSNPENTVGLISGAGANPRVLSTFTAEFGKILAGLHDTQIEGKLHMATALQIAQLTLKHRQNKVQHQRIVAFVCSPISDSRDELIRLAKTLKKNNVAVDIINFGEIEQNTELLDEFIAAVNNPQEETSHLLTVTPGPRLLYENIASSPIILEEGSSGMGAFGGSGGDSDANGTFMDFGVDPSMDPELAMALRLSMEEEQQRQERLRQQQQQQDQPEQSEQPEQHQDK
modifications: strain ATCC 204508 / S288c
notes: as for B1
B5: SEQID-00502: protein of the 168 nutritive polypeptide library (protein)
chain: MASQSNTKSVHDFTVKDARGNNVNLADYKGKVLLIVNVASQCGLTNSNYTELNQLYEKYKGKGLEILAFPCNQFGAQEPGTNEEIVEFACTRFKAEFPIFDKVDVNGDNAAPLYKFLKSSKGGLFGDSIKWNFSKFLVDKDGNVVDRYAPTTSPLSIEKDIKKLLDA
modifications: Glycine max
notes: as for B1
B6: SEQID-00511: protein of the 168 nutritive polypeptide library (protein)
chain: MVLFGFGKKKSLPKPEEALPGRDRVMSVPDRHYINGNPLKPPFPEGMEQAVFGLGCFWGAERKFWQQQGVFSTAVGYAGGYTKNPTYEEVCSGMTGHTEVVLVVFDPKVISYTDLLKLFWESHNPTQGMRQGNDTGTQYRSAIYTYSDEQQRLALASRDRYQQALSAASYGEITTEIAPAQEFYYAEAYHQQYLGKNPNGYCGLGGTGVGCPAMTETSV
modifications: Arthrospira platensis C1
notes: as for B1
B7: SEQID-00605: nutritive polypeptide naturally produced in Mushroom, recombinantly expressed in E. coli (protein, listed as Agaricus bisporus)
chain: MLEFTLNDGNRIPAIAFGTGTALYNQDASAFVRLAIETGITHLDGAQMYENEETLGKGIKSSGKPRSELFITTKLHILKPGQTVRETLVESLGKIGVDYVDLFLIHDPTANRKEATLSEIWSQLEALKNEGLTKSIGVSNFKVEDLNEILPGAKIIPAVNQIEFHPYVLKAASPIIELCKAKGIIVASYGGQTPIVRATDGPLKDLLPKIRERLEQTRGSPVTEGQVLTKWLLQKNVIAISTSSKESRIKEFLSTVDVPDLTKQEIESIDNAGSTIHKRIYMKHIFNE
modifications: var. bisporus; strain H97 / ATCC MYA-4626 / FGSC 10389
notes: nutritive polypeptide naturally produced in Mushroom, recombinantly expressed in E. coli

Assays:
[1] = SGF digest of the 168 nutritive polypeptide library, intact protein by LC-MS/MS spectral counts; format: in vitro ADME; conditions: proteins detected in the 168 nutritive polypeptide library
Protocol: Nutritive polypeptide intact half-life determination in a complex mixture. The in vitro intact half-life of multiple polypeptides in a complex mixture was determined using the simulated gastric in vitro digestion described above. Briefly, the 168 nutritive polypeptide library was generated as described herein by cloning, transforming, and expressing a gene library encoding 168 proteins as a single mixture. The recombinantly expressed proteins were purified from host cell proteins by IMAC purification as described herein.
The 168 Protein Library was treated with SGF as described above and the t=0 and t=10 min samples were analyzed for intact protein by LC-MS/MS. To begin, 10 μg of sample was loaded onto a 10% SDS-PAGE gel (Invitrogen) and run approximately 5 cm into the gel. The gel was excised into ten fractions from 100 kD to the dye front and the gel slices were processed by washing with 25 mM ammonium bicarbonate, followed by acetonitrile. Gel fractions were then reduced with 10 mM dithiothreitol at 60° C., followed by alkylation with 50 mM iodoacetamide at room temperature. Finally, the samples were digested with trypsin (Promega) at 37° C. for 4 h and the digestions were quenched with the addition of formic acid. The samples were then analyzed by nano LC/MS/MS using an EasynLC 1000 HPLC system interfaced to a ThermoFisher Q Exactive. Peptides were loaded on a trapping column and eluted over a 75 μm analytical column at 350 nL/min; both columns were packed with PepMap C18 3 μm resin (ThemoFisher). A 1 hour gradient was employed. The mass spectrometer was operated in data-dependent mode, with MS and MS/MS performed in the Orbitrap at 70,000 FWHM resolution and 17,500 FWHM resolution, respectively. The fifteen most abundant ions were selected for MS/MS. Data were searched against an appropriate database using Mascot to identify peptides. Mascot DAT files were parsed into the Scaffold software for validation, filtering and to create a nonredundant list per sample. Data were filtered at 1% protein and peptide false discovery rate (FDR) and requiring at least two unique peptides per protein. A full list of detected proteins and their spectral counts (SpC) was generated and reported as a function of each collected gel fraction. SpC are a count of the number of spectra identified for a given protein and are used as a measure of relative protein abundance (Liu, H. et al., Analytical Chemistry 2004, 76:4193-4201). To calculate the percentage of intact protein remaining at the 10 min time point of the SGF digest the number of SpC representative of intact peptide in the t=10 min sample were divided by the number of SpC representative of intact peptide in the t=0 min sample. The number of SpC representative of intact peptide was defined as the sum of the SpC in the fraction with the highest number of SpC assigned to that protein in the t=0 min sample and the two flanking fractions.

[2] = Intact half-life during simulated gastric fluid (SGF) digestion; conditions: for SGF Half-life (t½): SGF pH 1.5, pepsin:polypeptide 1:20 w/w, 37° C., produced in E. coli unless otherwise noted; for Half-life: purified proteins, chip electrophoresis, SGF
Protocol: Nutritive polypeptide half-life during simulated digestion. One metric for quantifying the breakdown of polypeptides from an intact form to smaller peptides is the intact half-life. In this experiment the nutritive polypeptide was exposed to a series of proteases that are active in the stomach (pepsin) and intestine (trypsin and chymotrypsin), and the presence of intact protein was measured over time. Specifically, the nutritive polypeptide was first treated at a concentration of 2 g/L with simulated gastric fluid (SGF) (0.03 M NaCl, titrated with HCl to pH 1.5 with a final pepsin: polypeptide ratio of 1:20 w/w) at 37° C. Time points were sampled from the reaction and quenched by addition of 0.2 M Na2CO3. […] Time points were sampled from the reaction and quenched by addition of Trypsin/Chymotrypsin Inhibitor (Sigma) solution until 240 min.
Time point samples were analyzed for intact protein by chip electrophoresis, polyacrylamide gel electrophoresis, or western blot. For chip electrophoresis (Labchip GX II), samples were analyzed using a HT Low MW Protein Express LabChip® Kit (following the manufacturer's protocol). A protein ladder was loaded every 12 samples for molecular weight determination (kDa) and quantification. For polyacrylamide gel electrophoresis, samples (1 μg) were separated on a NuPAGE® Novex® Bis-Tris Precast gel (Life Technologies) according to the manufacturer's protocol. The gel was stained using SimplyBlue™ SafeStain (Invitrogen) and imaged using a Chemidoc XRS+ (BioRad) or transferred onto nitrocellulose membranes using the iBlot® Dry Blotting System (Life Technologies) and iBlot® Western Detection Kit (Life Technologies) according to the manufacturer's protocol. Proteins were detected by blotting with Anti-His [C-term]-HRP antibody diluted 3:5000 in Blok™-PO Blocking Buffer using the SNAP i.d.® Protein Detection System (Millipore) according to the manufacturer's protocol. Blots were treated with Luminata Classico Western HRP Substrate (Millipore) according to the manufacturer's protocol and imaged using chemiluminescent detection on the Molecular Imager® Gel Doc™ XR+ System (Bio-Rad). Quantification of intact protein was determined by densitometry using ImageLab (BioRad). For all analysis methods the relative concentration of the polypeptide at each time point (if detected) was plotted overtime and fit to an exponential curve to calculate the intact half-life.
Specifically, the t=0 (enzyme-free control) and t=2 min samples from the SGF digest were analyzed for intact protein as described by chip electrophoresis, SDS-PAGE, western blot, and/or LC-MS/MS. Relative quantities of polypeptides at each time point were determined and the percentage of intact protein remaining at t=2 was determined.

[3] = Thermostability, ProteoStat Thermal Shift Stability Kit, temperature of aggregation; format: physicochemical
Protocol: Thermostability. The thermostability of proteins in a buffer cocktail of Citric Acid and Dibasic Sodium Phosphate over a pH range of 2.8 to 7.1 (preparation described above in Table E31B) was determined using the ProteoStat® Thermal Shift Stability Kit (Enzo Life Sciences) according to the manufacturer's standard protocol. Briefly, protein solutions (˜10 mg/ml) containing 1× ProteoStat TS Detection Reagent were heated from 25° C. to 95° C. at a rate of 0.5° C. per 30 sec using a real-time PCR (rtPCR) thermocycler (BioRad) equipped with a plate reader (SynergyMx, Biotek) while monitoring the fluorescence with a Texas Red filter.

[4] = pH solubility screen in Citric Acid / Dibasic Sodium Phosphate buffers; format: physicochemical; conditions: for pH Range where Protein is >80% detected as Soluble and A650 <1 OD: Low: lower pH of range; for pH Range where Protein is >80% detected as Soluble and A650 <1 OD: High: upper pH of range
Protocol: pH Solubility. […] Protein was either lyophilized and then resuspended in buffer cocktail mixtures, or concentrated and then spiked into buffer cocktail mixtures at a final protein concentration of 5 to 30 mg/ml. As a control, protein was also dissolved in a solution of 8 M urea. Protein solutions were shaken for 10 min at room temperature. Turbidity of proteins was determined by measuring the absorbance of protein solutions at 650 nm. The protein solution was then centrifuged for 10 min at 1100×g to pellet undissolved or precipitated protein. The soluble protein fraction (supernatant) was sampled and protein concentration was measured by one or more of the following methods: Coomassie Plus Protein Assay (Pierce), Chip electrophoresis, gel electrophoresis, and/or absorbance at 280 nm. The pH range over which select proteins remained greater than 80% soluble as determined by Bradford and the A650 value are listed in Table E31C.

[5] = heated 25° C. to 95° C., NS = protein not soluble

| Molecule | % Remaining at 10 min [1] | SGF Half-life (t½) [2] | Half-life [2] | Tagg (pH 7.1) ([3]; heated from 25° C. to 95° C.) | Tagg pH 2.8 ([3]; NS = protein not soluble) | Tagg pH 3.7 ([3]; NS = protein not soluble) | Tagg pH 4.3 ([3]; NS = protein not soluble) | Tagg pH 6.5 ([3]; NS = protein not soluble) | Tagg (pH 7.1) [3, 5] | pH Range where Protein is >80% detected as Soluble and A650 <1 OD: Low [4] | pH Range where Protein is >80% detected as Soluble and A650 <1 OD: Other ([4]; other pH where soluble) | Tagg pH 4.6 ([3]; NS = protein not soluble) | Tagg pH 5.0 ([3]; NS = protein not soluble) | Tagg pH 5.6 ([3]; NS = protein not soluble) | Tagg pH 6.0 ([3]; NS = protein not soluble) | pH Range where Protein is >80% detected as Soluble and A650 <1 OD: High [4] |
| --- | --- | --- | --- | --- | --- | --- | --- | --- | --- | --- | --- | --- | --- | --- | --- | --- |
| B1 | 12% | 12 s | 12 s |  |  |  |  |  |  |  |  |  |  |  |  |  |
| B2 | 0% | 18 s | 18 s | 95 |  |  |  |  |  |  |  |  |  |  |  |  |
| B3 | 1.1% | 12 s | 12 s |  | 95 | 95 | 95 | 45.5 | 48.5 |  |  |  |  |  |  |  |
| B4 | 3.3% | 24 s | 24 s |  |  |  |  |  |  |  |  |  |  |  |  |  |
| B5 | 9.7% | 36 s | 36 s |  | 95 | 95 | 95 | 78.5 | 95 | 7.1 | 2.8 | 95 | 77 | 77 | 76.5 |  |
| B6 | 4.3% | 18 s | 18 s |  |  |  |  | 45.5 | 42 | 5.6 |  |  |  |  | 39.5 | 7.1 |
| B7 | 0% | 12 s | 6 s |  |  |  |  | 38.5 | 39 | 5.6 |  | 40.5 | 33.5 | 37 | 44.5 | 7.1 |
